From patent US20160017295A1

Key:
Assay in all cases: cell-based or functional assay
[1] = biological target: SM 10-2 variant AAV capsid (Adeno-associated virus 2 (isolate Srivastava/1982) (AAV-2)) (UniProt P03135)
[2] = biological target: SM 10-8 variant AAV capsid (Adeno-associated virus 2 (isolate Srivastava/1982) (AAV-2)) (UniProt P03135)
[3] = biological target: SM 100-10 variant AAV capsid (Adeno-associated virus 2 (isolate Srivastava/1982) (AAV-2)) (UniProt P03135)
[4] = biological target: SM 100-3 variant AAV capsid (Adeno-associated virus 2 (isolate Srivastava/1982) (AAV-2)) (UniProt P03135)
[5] = biological target: Variant 1.45 (AAV2 capsid with N312K, N449D) (AAV2 (adeno-associated virus type 2)) (UniProt P03135)
[6] = biological target: variant γ4.3 (AAV2 capsid with N312K, N449D, N551S, I698V) (AAV2 (adeno-associated virus type 2)) (UniProt P03135)
[7] = biological target: wild-type AAV1 capsid (recombinant AAV-GFP vector) (AAV1 (adeno-associated virus type 1))
[8] = biological target: wild-type AAV2 capsid (recombinant AAV-GFP vector) (AAV2 (adeno-associated virus type 2)) (UniProt P03135)
[9] = biological target: wild-type AAV8 capsid (recombinant AAV-GFP vector) (AAV8 (adeno-associated virus type 8))

With “human IVIG (Gamimune N, 10% Human IVIG, Bayer)” the Fold Resistance Relative to AAV2 [1] was 7.52 fold, the Neutralizing IVIG concentration mg/ml (reduces gene delivery efficiency to 50%) [1] was 0.113 mg/mL and the Fold Resistance Relative to AAV2 [2] was 3.41 fold. It also gave a Neutralizing IVIG concentration mg/ml (reduces gene delivery efficiency to 50%) [2] of 0.051 mg/mL, a Fold Resistance Relative to AAV2 [3] of 4.39 fold and a Neutralizing IVIG concentration mg/ml (reduces gene delivery efficiency to 50%) [3] of 0.066 mg/mL. The Fold Resistance Relative to AAV2 [4] was 4.94 fold, the Neutralizing IVIG concentration mg/ml (reduces gene delivery efficiency to 50%) [4] was 0.074 mg/mL and the enhanced resistance to IVIg compared to wild-type AAV2 [5] was 1.23 fold. For the same substance, the enhanced resistance to IVIg compared to wild-type AAV2 [6] was 3.1 fold, the Fold Resistance Relative to AAV2 [7] was 1.76 fold and the Neutralizing IVIG concentration mg/ml (reduces gene delivery efficiency to 50%) [7] was 0.026 mg/mL. The Fold Resistance Relative to AAV2 [8] was 1 fold, the Neutralizing IVIG concentration mg/ml (reduces gene delivery efficiency to 50%) [8] was 0.015 mg/mL and the Fold Resistance Relative to AAV2 [9] was 6.11 fold. It also gave a Neutralizing IVIG concentration mg/ml (reduces gene delivery efficiency to 50%) [9] of 0.092 mg/mL.
